Laboratory results reported in PMC9284427 (The Journal of Cell Biology, 2022).
Like-named read-outs stand apart in the source and are kept apart here.

B2: MBP-tagged JIP3[1-108] (domain or fragment, human, UniProt Q9UPT6-1 1-108, looked up)
chain: MMEIQMDEGGGVVVYQDDYCSGSVMSERVSGLAGSIYREFERLIHCYDEEVVKELMPLVVNVLENLDSVLSENQEHEVELELLREDNEQLLTQYEREKALRRQAEEKF
B4: MBP::UNC-16[1-120] (domain or fragment, C. elegans, UniProt P34609-1 1-120, looked up)
chain: MACNLSPVNEMADSITSSTPSEIVYGGPGSPDEHRTMSDKVQTMASAIYRELETMIKVHGEDGVKTLMPLVVNVLEALDLAYLERDEQTAELEMLKEDNEQLQTQYEREKALRKQTEQKY
B8: GST::DLIC1[388-523] (domain or fragment, human, UniProt Q9Y6G9 388-523, looked up)
chain: PTAAGRPVDASPRVPGGSPRTPNRSVSSNVASVSPIPAGSKKIDPNMKAGATSEGVLANFFNSLLSKKTGSPGGPGVSGGSPAGGAGGGSSGLPPSTKKSGQKPVLDVHAELDRITRKPVTVSPTTPTSPTEGEAS
B10: RILP[1-106] (domain or fragment, human, UniProt Q96NA2-1 1-106, looked up)
chain: MEPRRAAPGVPGWGSREAAGSASAAELVYHLAGALGTELQDLARRFGPEAAAGLVPLVVRALELLEQAAVGPAPDSLQVSAQPAEQELRRLREENERLRRELRAGP

Legend:
GST::KIF5C[807-956] [1] = biological target: T1, GST::KIF5C[807-956] (mouse, UniProt P28738 807-956); assay: pull-down
AUC = biological target: the molecule itself; assay: AUC
DLIC1[388-523] = DLIC1[388-523] (human, UniProt Q9Y6G9 388-523); assay: ITC
GST::KIF5C[807-956] [2] = biological target: T1, GST::KIF5C[807-956]; assay: pull-down; remark: listed apart in the source
MBP-tagged JIP3[1-108] = biological target: B2; assay: pull-down
RILP[1-106] = biological target: B10; assay: SEC
UNC-116[675-815] = UNC-116[675-815] (C. elegans, UniProt P34540 675-815); assay: pull-down
MBP::UNC-16[1-120] = biological target: B4; assay: pull-down
full-length RILP = biological target: T2, full-length RILP (human, UniProt Q96NA2-1 1-401); assay: pull-down
T2 sequence (looked up): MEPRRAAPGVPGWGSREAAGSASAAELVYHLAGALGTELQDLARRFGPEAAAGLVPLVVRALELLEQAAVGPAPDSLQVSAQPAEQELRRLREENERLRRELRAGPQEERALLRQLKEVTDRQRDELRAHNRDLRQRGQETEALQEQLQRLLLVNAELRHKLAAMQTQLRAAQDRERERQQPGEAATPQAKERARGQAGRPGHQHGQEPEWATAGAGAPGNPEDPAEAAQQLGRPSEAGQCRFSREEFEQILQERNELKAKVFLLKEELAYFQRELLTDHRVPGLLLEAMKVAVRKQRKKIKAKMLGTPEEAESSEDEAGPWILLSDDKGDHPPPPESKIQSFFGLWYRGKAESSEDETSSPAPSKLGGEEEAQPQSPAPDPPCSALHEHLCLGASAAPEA

mouse JIP3[186-505] = biological target: T3, mouse JIP3[186-505] (mouse, UniProt Q9ESN9-5 186-505); assay: pull-down
T3 sequence (looked up): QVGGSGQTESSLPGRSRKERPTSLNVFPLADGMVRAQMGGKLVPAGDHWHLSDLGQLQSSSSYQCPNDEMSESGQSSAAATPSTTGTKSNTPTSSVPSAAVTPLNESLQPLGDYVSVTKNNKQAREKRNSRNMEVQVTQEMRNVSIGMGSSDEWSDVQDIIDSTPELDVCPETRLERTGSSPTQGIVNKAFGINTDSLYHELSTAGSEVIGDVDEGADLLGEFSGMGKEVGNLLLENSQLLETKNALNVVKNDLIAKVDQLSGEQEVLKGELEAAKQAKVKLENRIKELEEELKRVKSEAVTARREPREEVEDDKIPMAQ

GST::DLIC1[388-523] = biological target: B8; assay: pull-down

T1 sequence (P28738 807-956): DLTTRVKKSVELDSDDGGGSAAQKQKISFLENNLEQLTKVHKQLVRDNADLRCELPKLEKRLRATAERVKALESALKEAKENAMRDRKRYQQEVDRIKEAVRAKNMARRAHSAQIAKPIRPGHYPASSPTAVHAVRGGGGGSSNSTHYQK
Chain of UNC-116[675-815] (P34540 675-815): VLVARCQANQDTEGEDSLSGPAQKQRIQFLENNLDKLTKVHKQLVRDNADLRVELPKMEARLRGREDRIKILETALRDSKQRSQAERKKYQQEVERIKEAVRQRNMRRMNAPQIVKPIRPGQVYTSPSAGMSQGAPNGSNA

B1: JIP3[1-108] (domain or fragment, human, UniProt Q9UPT6-1 1-108, looked up)
chain: MMEIQMDEGGGVVVYQDDYCSGSVMSERVSGLAGSIYREFERLIHCYDEEVVKELMPLVVNVLENLDSVLSENQEHEVELELLREDNEQLLTQYEREKALRRQAEEKF
- binding result (GST::KIF5C[807-956] [1]): binds
- stoichiometry N (AUC): 2
- Kd (DLIC1[388-523]): ~1000 nM
- stoichiometry N (DLIC1[388-523]): 2 DLIC1-C molecules per RH1 dimer

Binder: B2
- binding result (GST::KIF5C[807-956] [2]): binds

B3: JIP3[1-108] V60Q (domain or fragment, human, UniProt Q9UPT6-1 1-108, looked up)
chain: MMEIQMDEGGGVVVYQDDYCSGSVMSERVSGLAGSIYREFERLIHCYDEEVVKELMPLVQNVLENLDSVLSENQEHEVELELLREDNEQLLTQYEREKALRRQAEEKF
- binding result (GST::KIF5C[807-956] [1]): binds
- stoichiometry N (AUC): 2

Binder: NMKAGATSEGVLANFFNSLLSKKTGS (peptide, UniProt Q9Y6G9 433-458, looked up) [DLIC-C helix 1 peptide (residues 433-458)]
- binding result (MBP-tagged JIP3[1-108]): binds

Binder: SEGVLANFFNSLLSKK (domain or fragment, human) [DLIC1[440-455]]
- binding result (RILP[1-106]): binds

Binder: B4
- binding result (UNC-116[675-815]): binds

B5: GST::DLI-1[369-442] (domain or fragment, C. elegans, UniProt G5ED34 369-442, looked up)
chain: TTAAPKPRTMQEEPTDKDSPLANFFSNLLNKDKPSKVSSPSTVSQPMDAAATQAQLDRLLKSAQSPKPQPRDSD
- binding result (MBP::UNC-16[1-120]): binds

B6: MBP::UNC-16[1-120] V72Q (domain or fragment, C. elegans, UniProt P34609-1 1-120, looked up)
chain: MACNLSPVNEMADSITSSTPSEIVYGGPGSPDEHRTMSDKVQTMASAIYRELETMIKVHGEDGVKTLMPLVQNVLEALDLAYLERDEQTAELEMLKEDNEQLQTQYEREKALRKQTEQKY
- binding result (UNC-116[675-815]): binds

B7: JIP4[1-103] (domain or fragment, human, UniProt O60271-1 1-103, looked up)
chain: MELEDGVVYQEEPGGSGAVMSERVSGLAGSIYREFERLIGRYDEEVVKELMPLVVAVLENLDSVFAQDQEHQVELELLRDDNEQLITQYEREKALRKHAEEKF
- stoichiometry N (AUC): 2
- Kd (DLIC1[388-523]): ~4000 nM
- stoichiometry N (DLIC1[388-523]): 2 DLIC1-C molecules per RH1 dimer

Binder: B8
- binding result (full-length RILP): binds

B9: GST-tagged KLC1[185-501] (domain or fragment, human, UniProt Q07866-1 185-501, looked up)
chain: DDPGQGIQQQHSSAAAAAQQGGYEIPARLRTLHNLVIQYASQGRYEVAVPLCKQALEDLEKTSGHDHPDVATMLNILALVYRDQNKYKDAANLLNDALAIREKTLGKDHPAVAATLNNLAVLYGKRGKYKEAEPLCKRALEIREKVLGKDHPDVAKQLNNLALLCQNQGKYEEVEYYYQRALEIYQTKLGPDDPNVAKTKNNLASCYLKQGKFKQAETLYKEILTRAHEREFGSVDDENKPIWMHAEEREECKGKQKDGTSFGEYGGWYKACKVDSPTVTTTLKNLGALYRRQGKFEAAETLEEAAMRSRKQGLDNV
- binding result (mouse JIP3[186-505]): binds

Binder: B10
- binding result (GST::DLIC1[388-523]): binds
